Laboratory results taken from publication PMC2115667 (The Journal of Cell Biology, 1988).

Target: the molecule itself
Test: sedimentation velocity centrifugation on glycerol gradients

B1: cytotactin (intact, unreduced hexabrachion) (natural protein)
chain: ETGLNVTLPEDNQPVVFNHVYNIKLPVGSLCSVDLDTASGDADLKAEIEPVKNYEEHTVNEGNQIVFTHRINIPRRACGCAAAPDIKDLLSRLEELEGLVSSLREQCASGAGCCPNSQTAEGRLDTAPYCSGHGNYSTEICGCVCEPGWKGPNCSEPACPRNCLNRGLCVRGKCICEEGFTGEDCSQAACPSDCNDQGKCVDGVCVCFEGYTGPDCGEELCPHGCGIHGRCVGGRCVCHEGFTGEDCNEPLCPNNCHNRGRCVDNECVCDEGYTGEDCGELICPNDCFDRGRCINGTCFCEEGYTGEDCGELTCPNNCNGNGRCENGLCVCHEGFVGDDCSQKRCPKDCNNRGHCVDGRCVCHEGYLGEDCGELRCPNDCHNRGRCINGQCVCDEGFIGEDCGELRCPNDCHNRGRCVNGQCECHEGFIGEDCGELRCPNDCNSHGRCVNGQCVCDEGYTGEDCGELRCPNDCHNRGRCVEGRCVCDNGFMGEDCGELSCPNDCHQHGRCVDGRCVCHEGFTGEDCRERSCPNDCNNVGRCVEGRCVCEEGYMGIDCSDVSPPTELTVTNVTDKTVNLEWKHENLVNEYLVTYVPTSSGGLDLQFTVPGNQTSATIHELEPGVEYFIRVFAILKNKKSIPVSARVATYLPAPEGLKFKSVRETSVQVEWDPLSISFDGWELVFRNMQKKDDNGDITSSLKRPETSYMQPGLAPGQQYNVSLHIVKNNTRGPGLSRVITTKLDAPSQIEAKDVTDTTALITWSKPLAEIEGIELTYGPKDVPGDRTTIDLSEDENQYSIGNLRPHTEYEVTLISRRGDMESDPAKEVFVTDLDAPRNLKRVSQTDNSITLEWKNSHANIDNYRIKFAPISGGDHTELTVPKGNQATTRATLTGLRPGTEYGIGVTAVRQDRESAPATINAGTDLDNPKDLEVSDPTETTLSLRWRRPVAKFDRYRLTYVSPSGKKNEMEIPVDSTSFILRGLDAGTEYTISLVAEKGRHKSKPTTIKGSTEEEPELGNLSVSETGWDGFQLTWTAADGAYENFVIQVQQSDNPEETWNITVPGGQHSVNVTGLKANTPYNVTLYGVIRGYRTKPLYVETTTGAHPEVGELTVSDITPESFNLSWTTTNGDFDAFTIEIIDSNRLLEPMEFNISGNSRTAHISGLSPSTDFIVYLYGISHGFRTQAISAAATTEAEPEVDNLLVSDATPDGFRLSWTADDGVFDSFVLKIRDTKRKSDPLELIVPGHERTHDITGLKEGTEYEIELYGVSSGRRSQPINSVATTVVGSPKGISFSDITENSATVSWTPPRSRVDSYRVSYVPITGGTPNVVTVDGSKTRTKLVKLVPGVDYNVNIISVKGFEESEPISGILKTALDSPSGLVVMNITDSEALATWQPAIAAVDNYIVSYSSEDEPEVTQMVSGNTVEYDLNGLRPATEYTLRVHAVKDAQKSETLSTQFTTGLDAPKDLSATEVQSETAVITWRPPRAPVTDYLLTYESIDGRVKEVILDPETTSYTLTELSPSTQYTVKLQALSRSMRSKMIQTVFTTTGLLYPYPKDCSQALLNGEVTSGLYTIYLNGDRTQPLQVFCDMAEDGGGWIVFLRRQNGKEDFYRNWKNYVAGFGDPKDEFWIGLENLHKISSQGQYELRVDLRDRGETAYAVYDKFSVGDAKTRYRLRVDGYSGTAGDSMTYHNGRSFSTFDKDNDSAITNCALSYKGAFWYKNCHRVNLMGRYGDNNHSQGVNWFHWKGHEYSIQFAEMKLRPSSFRNLEGRRKRA
modifications: interchain disulfide bonds; HNK-1 carbohydrate epitope; radioiodinated (chloramine T, 125I) in the ultracentrifugation
  stoichiometry N: ~6
